# Values quoted from earlier work as cited in article PMC5113071.
# Like-named read-outs stand apart in the source and are kept apart here.
# Key:
# NRP1 (Homo sapiens) [1] = molecular target: NRP1 (Homo sapiens) (UniProt O14786)
# [2] = molecular target: alpha-2-macroglobulin fast form (Homo sapiens) (UniProt P01023)
# VEGFR1 (Homo sapiens) = VEGFR1 (Homo sapiens) (UniProt P17948)
# [3] = molecular target: alpha-2-macroglobulin (Homo sapiens) (UniProt P01023)
# VEGFR2 (Homo sapiens) = VEGFR2 (Homo sapiens) (UniProt P35968)
# UniProt P35968, sequence (P35968 20-1356): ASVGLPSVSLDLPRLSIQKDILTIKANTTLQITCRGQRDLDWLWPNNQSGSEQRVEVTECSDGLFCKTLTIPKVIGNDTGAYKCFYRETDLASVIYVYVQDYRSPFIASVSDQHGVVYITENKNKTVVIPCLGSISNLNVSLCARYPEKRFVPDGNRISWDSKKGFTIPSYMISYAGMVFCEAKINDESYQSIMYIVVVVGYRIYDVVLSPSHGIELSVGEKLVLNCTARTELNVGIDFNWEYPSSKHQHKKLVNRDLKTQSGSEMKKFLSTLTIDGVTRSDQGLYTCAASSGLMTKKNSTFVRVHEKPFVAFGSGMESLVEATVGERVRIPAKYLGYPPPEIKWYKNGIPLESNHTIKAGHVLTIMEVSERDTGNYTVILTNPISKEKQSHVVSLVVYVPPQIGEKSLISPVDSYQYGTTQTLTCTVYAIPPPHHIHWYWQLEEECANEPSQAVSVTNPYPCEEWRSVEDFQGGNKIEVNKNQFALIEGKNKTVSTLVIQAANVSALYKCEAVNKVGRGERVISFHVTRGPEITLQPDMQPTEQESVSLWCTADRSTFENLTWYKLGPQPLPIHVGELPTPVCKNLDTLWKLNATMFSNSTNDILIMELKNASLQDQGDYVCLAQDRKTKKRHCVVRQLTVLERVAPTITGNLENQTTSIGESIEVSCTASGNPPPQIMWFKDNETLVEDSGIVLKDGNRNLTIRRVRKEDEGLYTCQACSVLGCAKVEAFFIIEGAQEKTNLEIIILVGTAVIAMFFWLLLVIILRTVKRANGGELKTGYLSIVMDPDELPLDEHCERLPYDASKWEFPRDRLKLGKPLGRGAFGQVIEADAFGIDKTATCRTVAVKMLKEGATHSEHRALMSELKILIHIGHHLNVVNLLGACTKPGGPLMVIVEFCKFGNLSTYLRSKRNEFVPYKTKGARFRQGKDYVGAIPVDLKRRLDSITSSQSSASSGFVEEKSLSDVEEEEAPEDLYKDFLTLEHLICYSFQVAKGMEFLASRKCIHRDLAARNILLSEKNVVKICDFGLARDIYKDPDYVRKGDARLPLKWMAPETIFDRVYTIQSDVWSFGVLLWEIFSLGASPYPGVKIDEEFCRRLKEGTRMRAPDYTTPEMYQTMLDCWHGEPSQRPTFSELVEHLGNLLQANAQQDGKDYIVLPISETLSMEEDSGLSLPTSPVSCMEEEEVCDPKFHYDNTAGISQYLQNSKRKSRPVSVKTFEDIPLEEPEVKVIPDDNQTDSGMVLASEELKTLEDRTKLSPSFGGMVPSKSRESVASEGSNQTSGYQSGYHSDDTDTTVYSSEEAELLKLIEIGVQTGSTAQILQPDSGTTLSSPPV
# NRP1 (Homo sapiens) [4] = molecular target: NRP1 (Homo sapiens) (UniProt O14786); remark: listed apart in the source
substance,measurement,setting,value
VEGF165a and VEGF121 (from UniProt P15692),Kd,NRP1 (Homo sapiens) [1],0.312 nM
"VEGF165a, VEGF165b and VEGF121 (from UniProt P15692)",Kd,[2],420 nM
same,Kd,VEGFR1 (Homo sapiens),0.033 nM
same,Kd,[3],4000 nM
same,Kd,VEGFR2 (Homo sapiens),0.1 nM
sVEGFR1 (from UniProt P17948),Kd,NRP1 (Homo sapiens) [4],1.8 nM
